For one molecule, Kd results are on record in PMC7610802 (The Journal of allergy and clinical immunology, 2019).

The experiment deals with T1, mouse soluble ST2 (sST2) (mouse, UniProt P14719-2 27-337, N-linked glycans (shown by PNGase F)).
T1 sequence: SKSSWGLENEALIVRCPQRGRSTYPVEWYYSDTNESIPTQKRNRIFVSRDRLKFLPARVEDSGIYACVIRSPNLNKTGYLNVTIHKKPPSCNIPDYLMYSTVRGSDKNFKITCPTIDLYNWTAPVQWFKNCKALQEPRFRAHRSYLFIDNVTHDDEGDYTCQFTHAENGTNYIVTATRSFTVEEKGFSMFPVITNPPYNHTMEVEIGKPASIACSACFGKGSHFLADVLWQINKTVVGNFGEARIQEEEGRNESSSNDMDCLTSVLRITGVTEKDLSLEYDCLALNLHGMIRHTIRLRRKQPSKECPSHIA
As to the kind of experiment: ITC. (In general: Isothermal titration calorimetry measures the heat released or taken up as one component is titrated into another.)

B1: mouse IL-33 (residues 109-266) (ligand)
chain: SIQGTSLLTQSPASLSTYNDQSVSFVLENGCYVINVDDSGKDQEQDQVLLRYYESPCPASQSGDGVDGKKLMVNMSPIKDTDIWLHANDKDYSVELQRGDVSPPEQAFFVLHKKSSDFVSFECKNLPGTYIGVKDNQLALVEEKDESCNNIMFKLSKI
In turn, B1 yielded a Kd of 4.59 nM. This counts as single-digit nanomolar.

The Kd is a measure of binding affinity in units of concentration. Lower therefore signals a tighter complex.
